Values joined by “and” are separate entries in the source; they are usually repeats but may differ in a detail not shown here. Identical values can stand only once.
What was measured:
[1] = target: single point mutations in RAD23A UBA1 or UBA2 (as tested with Pol κ); experiment: co-IP
[2] = target: single point mutations in RAD23A UBA1 or UBA2 (as tested with Rev1); experiment: co-IP
[3] = target: His Pol ι aa 1–419 (catalytic domain of Pol ι) (human); experiment: MST
[4] = target: single point mutations in RAD23A UBA1 or UBA2 (as tested with Pol ι); experiment: co-IP
[5] = target: FLAG-RAD23A lacking UBA1 (human) (UniProt P54725); experiment: co-IP

HA-tagged REV1, sequence (Q9UBZ9 whole entry): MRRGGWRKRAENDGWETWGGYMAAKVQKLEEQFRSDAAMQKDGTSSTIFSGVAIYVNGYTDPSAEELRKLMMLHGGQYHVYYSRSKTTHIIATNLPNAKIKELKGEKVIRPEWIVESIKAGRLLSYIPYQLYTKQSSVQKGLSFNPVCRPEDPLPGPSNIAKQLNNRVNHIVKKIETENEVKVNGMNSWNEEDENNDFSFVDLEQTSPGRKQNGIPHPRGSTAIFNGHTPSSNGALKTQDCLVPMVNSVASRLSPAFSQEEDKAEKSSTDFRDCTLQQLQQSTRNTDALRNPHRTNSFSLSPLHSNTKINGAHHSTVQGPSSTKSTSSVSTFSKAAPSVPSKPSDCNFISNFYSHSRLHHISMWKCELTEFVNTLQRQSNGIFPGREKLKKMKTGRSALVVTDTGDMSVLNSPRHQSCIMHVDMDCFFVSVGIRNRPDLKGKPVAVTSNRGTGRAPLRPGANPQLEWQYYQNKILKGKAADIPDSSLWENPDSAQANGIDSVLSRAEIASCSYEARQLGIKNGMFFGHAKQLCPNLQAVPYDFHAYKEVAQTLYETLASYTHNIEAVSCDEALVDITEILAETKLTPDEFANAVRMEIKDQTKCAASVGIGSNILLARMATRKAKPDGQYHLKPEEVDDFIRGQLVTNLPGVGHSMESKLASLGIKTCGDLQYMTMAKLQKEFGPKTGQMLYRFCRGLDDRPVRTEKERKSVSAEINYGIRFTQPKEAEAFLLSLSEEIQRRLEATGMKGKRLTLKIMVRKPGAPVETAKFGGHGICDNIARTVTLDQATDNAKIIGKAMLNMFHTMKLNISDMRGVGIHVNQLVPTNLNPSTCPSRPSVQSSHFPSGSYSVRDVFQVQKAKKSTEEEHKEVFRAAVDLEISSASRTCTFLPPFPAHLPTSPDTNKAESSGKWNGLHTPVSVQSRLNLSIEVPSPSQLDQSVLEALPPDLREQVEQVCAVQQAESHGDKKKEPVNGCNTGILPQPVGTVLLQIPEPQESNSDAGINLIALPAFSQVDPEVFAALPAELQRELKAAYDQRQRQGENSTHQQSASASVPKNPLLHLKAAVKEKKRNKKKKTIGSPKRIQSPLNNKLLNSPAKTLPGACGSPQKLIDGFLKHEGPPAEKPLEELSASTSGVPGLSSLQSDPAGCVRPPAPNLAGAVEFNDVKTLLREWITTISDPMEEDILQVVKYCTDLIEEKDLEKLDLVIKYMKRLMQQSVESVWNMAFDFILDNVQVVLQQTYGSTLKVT
HA-tagged Pol κ, sequence (Q9UBT6 whole entry): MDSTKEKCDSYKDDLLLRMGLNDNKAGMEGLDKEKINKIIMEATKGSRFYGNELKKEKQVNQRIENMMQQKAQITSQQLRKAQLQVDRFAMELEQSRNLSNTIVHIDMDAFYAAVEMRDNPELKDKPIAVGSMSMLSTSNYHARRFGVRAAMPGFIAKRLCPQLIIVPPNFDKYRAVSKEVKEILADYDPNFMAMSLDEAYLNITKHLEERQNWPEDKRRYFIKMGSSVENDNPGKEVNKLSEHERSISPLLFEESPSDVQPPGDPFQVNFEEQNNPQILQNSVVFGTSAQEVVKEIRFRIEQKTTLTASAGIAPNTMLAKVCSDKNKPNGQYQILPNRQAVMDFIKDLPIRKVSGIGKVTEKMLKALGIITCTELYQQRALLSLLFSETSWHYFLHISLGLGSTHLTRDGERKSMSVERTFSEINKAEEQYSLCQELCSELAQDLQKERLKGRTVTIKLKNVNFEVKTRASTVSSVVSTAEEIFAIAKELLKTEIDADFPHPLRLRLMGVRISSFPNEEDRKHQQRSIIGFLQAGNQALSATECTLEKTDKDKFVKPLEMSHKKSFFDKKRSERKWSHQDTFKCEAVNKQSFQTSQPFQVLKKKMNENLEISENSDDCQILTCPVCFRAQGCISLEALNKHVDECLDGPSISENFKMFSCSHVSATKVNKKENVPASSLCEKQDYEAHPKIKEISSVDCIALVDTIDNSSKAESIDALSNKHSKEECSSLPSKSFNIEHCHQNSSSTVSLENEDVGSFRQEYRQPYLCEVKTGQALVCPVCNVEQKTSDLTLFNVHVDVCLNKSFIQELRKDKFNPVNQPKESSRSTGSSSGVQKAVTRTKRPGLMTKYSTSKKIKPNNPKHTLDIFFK

Q: With “HA-tagged Pol κ (from UniProt Q9UBT6 1-870) (enzyme)” as the substance, how does the percent disruption of binding against WT RAD23A [1] read?
A: 40% and 60%

Q: For “HA-tagged REV1 (from UniProt Q9UBZ9 1-1251) (enzyme)”, which percent disruption of binding against WT RAD23A [2] is on record?
A: 70 to 80%

Q: How did the Kd [3] turn out when “RAD23A ΔUBL fragment (domain or fragment)” was run?
A: 90 µM

Q: With WT HA-Pol ι (enzyme) as the substance, how does the percent disruption of binding against WT RAD23A [4] read?
A: 40% and 60%

Q: What about the percent reduction of binding against WT RAD23A [5] of the same substance?
A: 75 to 85%
